Data published in patent US20210101970A1 (Pfizer, published 2021).

T1: human CXCR5 (human, UniProt P32302 1-372)
T1 sequence: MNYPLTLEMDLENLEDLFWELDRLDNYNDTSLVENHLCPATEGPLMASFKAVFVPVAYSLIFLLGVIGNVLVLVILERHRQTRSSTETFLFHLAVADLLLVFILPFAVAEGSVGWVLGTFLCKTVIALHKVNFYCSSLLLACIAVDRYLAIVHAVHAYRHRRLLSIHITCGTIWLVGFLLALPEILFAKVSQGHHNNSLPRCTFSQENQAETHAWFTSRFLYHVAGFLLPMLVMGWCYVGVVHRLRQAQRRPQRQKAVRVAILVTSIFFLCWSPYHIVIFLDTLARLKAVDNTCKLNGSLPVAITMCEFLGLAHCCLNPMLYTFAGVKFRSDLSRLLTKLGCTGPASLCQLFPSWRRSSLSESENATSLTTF

T2: mouse CXCR5 (mouse, UniProt Q04683 1-374)
T2 construct: also called mCXCR5
T2 sequence: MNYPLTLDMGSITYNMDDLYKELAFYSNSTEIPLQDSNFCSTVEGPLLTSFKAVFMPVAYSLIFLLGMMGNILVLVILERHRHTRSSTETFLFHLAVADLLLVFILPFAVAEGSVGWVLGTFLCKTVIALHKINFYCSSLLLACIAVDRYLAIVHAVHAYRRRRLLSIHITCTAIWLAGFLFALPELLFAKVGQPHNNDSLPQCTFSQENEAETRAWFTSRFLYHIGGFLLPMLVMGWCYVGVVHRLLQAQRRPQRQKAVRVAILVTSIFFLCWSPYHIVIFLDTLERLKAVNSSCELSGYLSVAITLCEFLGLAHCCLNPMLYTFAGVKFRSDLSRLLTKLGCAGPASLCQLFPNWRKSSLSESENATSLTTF

T3: cynomolgus monkey CXCR5 (cynomolgus monkey, UniProt P32302 1-372 (human entry))
T3 construct: also called cynoCXCR5; NHP CXCR5
T3 chain: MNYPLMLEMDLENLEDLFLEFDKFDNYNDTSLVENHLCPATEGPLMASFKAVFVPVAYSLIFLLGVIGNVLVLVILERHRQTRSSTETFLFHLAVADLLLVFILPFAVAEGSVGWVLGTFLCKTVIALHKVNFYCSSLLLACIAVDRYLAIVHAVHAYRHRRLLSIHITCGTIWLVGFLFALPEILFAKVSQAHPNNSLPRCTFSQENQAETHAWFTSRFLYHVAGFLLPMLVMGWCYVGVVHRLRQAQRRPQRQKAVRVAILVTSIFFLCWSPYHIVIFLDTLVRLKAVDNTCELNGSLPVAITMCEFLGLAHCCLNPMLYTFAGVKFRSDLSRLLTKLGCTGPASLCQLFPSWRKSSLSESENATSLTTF

B1: 2C9 (reference antibody) (antibody, human IgG1, kappa, V domains shown)
VH: EVQLVESGGGLVKPGGSLRLSCAASGFTFSTNAMNWVRQAPGKGLERVARIRSKSNNYATYYADSVKDRFTISRDDSKNTLYLQMNSLKTEDTAVYYCVTMIPFAYWGQGTLVTVSS
VL: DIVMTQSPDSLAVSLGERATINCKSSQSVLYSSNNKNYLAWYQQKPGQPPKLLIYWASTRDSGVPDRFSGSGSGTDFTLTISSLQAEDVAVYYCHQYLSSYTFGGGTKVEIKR
notes: fucosylated
B2: Chimeric 11G2 (antibody, human IgG1, kappa, V domains shown)
VH: EVKLVESGGGLVQPGGSLRLSCATSGFTFTDFYMSWVRQPPGRALEWLGFIRNKANGYTTEYSASVKGRFTISRDNSQSILYLQMNTLRAGDSATYYCVRVYGSTLHYWGQGTILTVSS
VL: DVVVTQSPDSLAVSLGQRATISCRASESVEYHGTSLMHWYQQKPGQPPKLLIYAASNVESGVPARFSGSGSGTDFSLNIHPVEEGDIAMYFCQQSRKVPWTFGGGTKLEIKR
notes: mouse V regions on human IgG1/kappa; also called 11G2 (chimeric)
B3: Afucosyl humanized 11G2 154/155 (antibody, human IgG1, kappa, V domains shown)
VH: EVQLVESGGGLVQPGGSLRLSCAASGFTFTDFYMSWVRQAPGKGLEWVGFIRNKANGYTTEYSASVKGRFTISRDNAKNSLYLQMNSLRAEDTAVYYCARVYGSTLHYWGQGTLVTVSS
VL: DIQMTQSPSSLSASVGDRVTITCRASESVEYHGTSLMHWYQQKPGKAPKLLIYAASNVESGVPSRFSGSGSGTDFTLTISSLQPEDFATYYCQQSRKVPWTFGQGTKVEIKR
modifications: afucosylated Fc glycan (Asn297)
notes: also called afucosyl h11G2 XC154/XC155; afucosylated h11G2 VL XC154/VH XC155

Columns and labels:
human CXCR5 [1] = biological target: T1, human CXCR5; assay: cell-based or functional assay
human CXCR5 [2] = biological target: T1, human CXCR5; assay: flow cytometry, human PBMC B cells
Outline: (§1)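 Human and cynomolgus PBMCs stained with 4-fold serial antibody dilutions (11 points from 5000 ng/mL) plus Fc block, 2 h on ice, then lineage markers and anti-human Ig secondary 30 min at 4 °C. gMFI of binding population read by flow cytometry; EC50 from sigmoidal fit of equilibrium binding curves.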

mouse CXCR5 [3] = biological target: T2, mouse CXCR5; assay: flow cytometry on cells expressing mouse CXCR5
human CXCR5 [4] = biological target: T1, human CXCR5; assay: FACS on cells expressing the CXCR5 construct
mouse CXCR5 [5] = biological target: T2, mouse CXCR5; assay: FACS on cells expressing the CXCR5 construct
XC251 = biological target: T4, XC251; assay: FACS on cells expressing the CXCR5 construct
T4 construct: whole, on cells; also called hCXCR5-mL3

XC252 = biological target: T5, XC252; assay: FACS on cells expressing the CXCR5 construct
T5 construct: whole, on cells; also called hCXCR5-mL2

XC253 = biological target: T6, XC253; assay: FACS on cells expressing the CXCR5 construct
T6 construct: whole, on cells; also called hCXCR5-mN

XC254 = biological target: T7, XC254; assay: FACS on cells expressing the CXCR5 construct
T7 construct: whole, on cells; also called hCXCR5-mL2-mL3

XC255 = biological target: T8, XC255; assay: FACS on cells expressing the CXCR5 construct
T8 construct: whole, on cells; also called hCXCR5-mN-mL3

XC256 = biological target: T9, XC256; assay: FACS on cells expressing the CXCR5 construct
T9 construct: whole, on cells; also called hCXCR5-mN-mL2

cynomolgus monkey CXCR5 = biological target: T3, cynomolgus monkey CXCR5; assay: flow cytometry, cynomolgus PBMC B cells
Outline: as §1

| Binder | ADCC Activity Average EC50, Human B Cells (human CXCR5 [1]) [pM] | EC50 (human CXCR5 [2]) [pM] | binding result (mouse CXCR5 [3]) | GMFI (human CXCR5 [4]) [GMFI] | GMFI (mouse CXCR5 [5]) [GMFI] | GMFI (XC251) [GMFI] | GMFI (XC252) [GMFI] | GMFI (XC253) [GMFI] | GMFI (XC254) [GMFI] | GMFI (XC255) [GMFI] | GMFI (XC256) [GMFI] | ADCC Activity Average EC50, Human Tfh Cells (human CXCR5 [1]) [pM] | EC50 (cynomolgus monkey CXCR5) [pM] | ADCC Activity Average EC50, Human Tfh-like Cells (human CXCR5 [1]) [pM] |
| --- | --- | --- | --- | --- | --- | --- | --- | --- | --- | --- | --- | --- | --- | --- |
| B1 | 380 | 65.6 | no binding | 117000 | 1180 | 13300 | 22400 | 1780 | 11400 | 1950 | 1970 |  |  |  |
| B2 | 564 | 17.9 |  |  |  |  |  |  |  |  |  | 1.55 | 6.95 |  |
| B3 | 2.01 | 6.6 | no binding | 139000 | 901 | 14600 | 21600 | 1220 | 11500 | 1320 | 1260 | 0.11 | 1.32 | 4.82 |
